This data set has as its target p53 (UniProt P04637 P04637:1-393). The data set can be described thus: EMSA; supershifted by p53 antibody; five times more protein and DNA needed than for GADD45; salmon sperm DNA 1.0 µg. The conditions noted are these: tags: baculovirus expressed, Protein Sciences Inc; chain copies: 4; label: T4 polynucleotide kinase end label.

Sequence of p53 (P04637 whole entry, one chain of several): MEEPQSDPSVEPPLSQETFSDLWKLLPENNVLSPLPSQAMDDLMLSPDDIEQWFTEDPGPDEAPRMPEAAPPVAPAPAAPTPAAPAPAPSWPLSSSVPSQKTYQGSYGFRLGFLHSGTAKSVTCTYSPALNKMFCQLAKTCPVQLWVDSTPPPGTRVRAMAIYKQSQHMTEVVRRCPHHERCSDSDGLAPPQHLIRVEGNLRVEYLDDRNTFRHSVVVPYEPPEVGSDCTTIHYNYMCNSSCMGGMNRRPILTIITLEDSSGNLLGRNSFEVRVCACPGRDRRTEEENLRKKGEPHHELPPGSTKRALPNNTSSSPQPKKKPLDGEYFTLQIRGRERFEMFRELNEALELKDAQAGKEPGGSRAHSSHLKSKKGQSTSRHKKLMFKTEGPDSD
Description: Accordingly, mobility shift assays were performed with purified p53 to determine if these sequences in the promoter of S100B were bona fide p53 binding sites, using the GADD45 sequence as a positive control. […] The baculovirus expressed p53 was obtained from Protein Sciences Inc. (Baltimore, Md.). Baculovirus expressed p53 was used (0.6 and 3.0 μg) for binding to the GADD45 and the S100B oligonucleotides respectively.

B1: S100B promoter p53 site (20/20 match, nt 1705-1735) (dsDNA)
DNA 1: GCCTGGGCAAGCTCTGTGCTTCACAGAGCAAGCCTGTGT
DNA 2: ACACAGGCTTGCTCTGTGAAGCACAGAGCTTGCCCAGGC
For the molecule B1, the binding result is “binds”.

The values are drawn from patent US20030219718, “Inhibitors of the S100-p53 protein-protein interaction and method of inhibiting cancer employing the same” (UNIVERSITY OF MARYLAND, BALTIMORE, published 2003).
